This experiment concerns the target T1, wild-type human RAS (KRAS) peptide on HLA-A*03:01 (human).
T1 peptide: VVVGAGGVGK
Put plainly: cytokine release. On the procedure:
Cos7 cells transduced with human HLA A*03:01 were independently pulsed with the G12V RAS peptide […] (SEQ ID NO: 33) or the corresponding wild-type peptide […] The transduced cells (effector cells) were co-cultured with the peptide-pulsed target cells. Interferon-gamma secretion was measured.

B1: TCR 807 (TCR, V domains shown)
Valpha: QQKVQQSPESLSVPEGGMASLNCTSSDRNFQYFWWYRQHSGEGPKALMSIFSDGDKKEGRFTAHLNKASLHVSLHIRDSQPSDSALYFCAARPGTQVVGQLTFGRGTRLQVYA
Vbeta: AQTIHQWPVAEIKAVGSPLSLGCTIKGKSSPNLYWYWQATGGTLQQLFYSITVGQVESVVQLNLSASRPKDDQFILSTEKLLLSHSGFYLCAWRDRPSSYEQYFGPGTRLTVL
As to B1, the binding result is given as “no recognition”.
